Test results reported in article PMC4700671.
Where “and” joins values, the source holds several entries; their conditions need not be identical. Equal entries are not always repeated.

What was measured:
[1] = molecular target: myristoylated MMTV MA (matrix protein of mouse mammary tumor virus), wild type, with C-terminal His-tag (mouse mammary tumor virus) (UniProt P10258); assay: AUC; sedimentation velocity, protein at 0.5 mg/mL in 50 mM Na2HPO4, 300 mM NaCl, 2.5 mM TCEP, pH 6.0; 50,000 rpm, 4 °C; absorbance at 280 nm; c(s) continuous size distribution; monomer to dimer
[2] = molecular target: myristoylated MMTV MA (matrix protein of mouse mammary tumor virus), wild type, with C-terminal His-tag (mouse mammary tumor virus) (UniProt P10258); assay: AUC; sedimentation velocity, protein at 5.0 mg/mL in 50 mM Na2HPO4, 300 mM NaCl, 2.5 mM TCEP, pH 6.0; 50,000 rpm, 4 °C; absorbance at 250 nm; c(s) continuous size distribution; monomer to dimer (and tetramer)
[3] = molecular target: myristoylated MMTV MA triple mutant L11N/F12N/V15N, with C-terminal His-tag (mouse mammary tumor virus) (UniProt P10258); assay: AUC; sedimentation velocity, protein at 0.5 mg/mL in 50 mM Na2HPO4, 300 mM NaCl, 2.5 mM TCEP, pH 6.0; 50,000 rpm, 4 °C; absorbance at 280 nm; c(s) continuous size distribution; monomer to dimer
[4] = molecular target: myristoylated MMTV MA triple mutant L11N/F12N/V15N, with C-terminal His-tag (mouse mammary tumor virus) (UniProt P10258); assay: AUC; sedimentation velocity, protein at 5.0 mg/mL in 50 mM Na2HPO4, 300 mM NaCl, 2.5 mM TCEP, pH 6.0; 50,000 rpm, 4 °C; absorbance at 250 nm; c(s) continuous size distribution; monomer to dimer (and tetramer)
[5] = molecular target: nonmyristoylated MMTV MA (matrix protein of mouse mammary tumor virus), wild type, with C-terminal His-tag (mouse mammary tumor virus) (UniProt P10258); assay: as above

## myristoylated MMTV MA (matrix protein of mouse mammary tumor virus), wild type, with C-terminal His-tag (from UniProt P10258 2-92) (domain or fragment)
[1]
  stoichiometry N: 2
[2]
  percent dimer: 98%
  percent tetramer: 2%
  stoichiometry N: 2 and 4

## myristoylated MMTV MA triple mutant L11N/F12N/V15N, with C-terminal His-tag (from UniProt P10258 2-92) (domain or fragment)
[3]
  percent dimer: 48%
  stoichiometry N: 2
[4]
  stoichiometry N: 2

## nonmyristoylated MMTV MA (matrix protein of mouse mammary tumor virus), wild type, with C-terminal His-tag (from UniProt P10258 2-92) (domain or fragment)
[5]
  percent dimer: 26%
  stoichiometry N: 2
